Results taken from patent US10556936B2, “Immunogenic proteins and fragments thereof from allergenic mites” (ALK-ABELLÓ A/S, priority 2016, dated 2020).

Key:
Type in all cases: cell-based, human
[1] = system: basophils in whole blood from HDM allergic donors; assay: Basophil Activation Test (BAT); settings: blood from HDM allergic individuals (n=14)
Outline: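 Basophil activation was read by flow cytometry as increased surface activation markers. The stimulus was a 1 h exposure of blood from 14 HDM-allergic donors to test proteins or major mite allergens at graded concentrations (e.g. 1–1000 ng/ml).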

[2] = system: T cell lines obtained from HDM allergic individuals and non-allergics; assay: In vitro T cell proliferation test in T cell lines (Example 3); settings: 0.5 or 2 ug/ml, 72 h; for % responders of in-vitro T cell proliferation test, Allergic: T cell lines from HDM allergic individuals (n=30); for % responders of in-vitro T cell proliferation test, Non-allergics: T cell lines from non-allergics (n=8)
Outline: (§1)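 Freshly isolated PBMC (5×10^6/ml) from mite-allergic patients or non-allergics cultured 5 days with test protein up to 10 ug/ml; IFN-gamma, IL-9, IL-10, IL-17, IL-31 in supernatants by multiplex immunoassay. T cell lines, raised 3 weeks on HDM extract, tested at 0.5 or 2 ug/ml protein in 72 h proliferation assay.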

[3] = system: PBMC cells obtained from mite allergic patients and non-allergics; assay: Ex vivo stimulation of PBMC: cytokine production (IFN-gamma, IL-9, IL-10, IL-17, IL-31)
Outline: as §1

[4] = system: HDM specific T-cell lines from HDM allergic donors; assay: T cell reactivity of protein: IL-5/IFNg FluoroSPOT or 72 h T cell proliferation in HDM specific T-cell lines (Example 2); settings: responding donors of tested HDM allergic donors
From the text: PBMCs from European HDM-allergic individuals were recruited in the Copenhagen region (defined by clinical history of allergy to house dust mite and specific IgE to group 1 and group 2 major allergens from Der p and/or Der f and with measured specific IgE (CAP) >0.7 kU/L towards Der p/f 1 or Der p/f 2. In addition, PBMCs from 10 US HDM-allergic individuals were recruited in San Diego (defined by Der p extract IgE titers greater than 0.35 kUA/L). PBMCs were isolated from whole blood by density gradient centrifugation according to manufacturers' instructions (Ficoll-Hypaque, Amersham Biosciences, Uppsala, Sweden). Der p- and Der f-specific extract IgE titers were determined using the ImmunoCAP system (Thermo Fisher, Uppsala, Sweden). In a separate series of experiments, pooled plasma from 10 European and 10 American HDM atopic individuals from the San Diego region, respectively, was utilized to run 2D immunoblots to elucidate IgE and IgG reactivity towards the proteins, which had at least one peptide with positive T cell response.
T cells reactivity was determined by establishment of HDM specific T-cell lines according to standard methods. In short, PMBCs from HDM allergic donors were cultured for 2-3 weeks in the presence of house dust mite allergen extract. The responses to proteins having SEQ ID NOs 1-44 were assessed by IL-5/IFNg FluoroSPOT (Mabtech FS-0108-10) according manufacturer protocol, (after 2 weeks) or proliferation in a standard 72 h T cell proliferation assay, as described in Henmar H et al., Clin Exp Immunol 2008; 153(3):316-23. (after 3 weeks). In addition these established T cell lines were used for further characterization and epitope mapping.

B1: A003: house dust mite protein; SEQ ID NO: 2 (Der f), 3 (Der p), 305 (Blo t) (protein)
chain: MAIDGKYQMESSEHFEEFVKEMGLDVDMTNVDLSKTSTMEICKDGDVYHIKSETAGIAHEIKFKVGEEFEDDMNGHKFKNVVTMECDNKMVQKKTSADGGKVVNVVREFTDAGCTVKSTYNTVTWTRVYKRM
# of individuals of 14 with positive BAT test ([1]; 1 ng/ml): 0
# of individuals of 14 with positive BAT test ([1]; 10 ng/ml): 0
# of individuals of 14 with positive BAT test ([1]; 100 ng/ml): 0
# of individuals of 14 with positive BAT test ([1]; 1000 ng/ml): 1
% responders of in-vitro T cell proliferation test, Allergic [2]: 3%
% responders of in-vitro T cell proliferation test, Non-allergics [2]: 0%
% HDM allergic individuals with cytokine production in ex-vivo T cell assay IL-5 [3]: 6%
% HDM allergic individuals with cytokine production in ex-vivo T cell assay IL-9 [3]: 0%
% HDM allergic individuals with cytokine production in ex-vivo T cell assay IL-10 [3]: 19%
% HDM allergic individuals with cytokine production in ex-vivo T cell assay IL-13 [3]: 13%
% HDM allergic individuals with cytokine production in ex-vivo T cell assay IL-17 [3]: 13%
% HDM allergic individuals with cytokine production in ex-vivo T cell assay IL-31 [3]: 0%
% HDM allergic individuals with cytokine production in ex-vivo T cell assay INF-g [3]: 0%
% non-allergic individuals with cytokine production in ex-vivo T cell assay IL-5 [3]: 0%
% non-allergic individuals with cytokine production in ex-vivo T cell assay IL-9 [3]: 0%
% non-allergic individuals with cytokine production in ex-vivo T cell assay IL-10 [3]: 17%
% non-allergic individuals with cytokine production in ex-vivo T cell assay IL-13 [3]: 0%
% non-allergic individuals with cytokine production in ex-vivo T cell assay IL-17 [3]: 17%
% non-allergic individuals with cytokine production in ex-vivo T cell assay IL-31 [3]: 0%
% non-allergic individuals with cytokine production in ex-vivo T cell assay INF-g [3]: 0%

B2: 20 (protein, listed as Dermatophagoides pteronyssinus)
chain: NWQMVWQDEFNGGHLDQNHWEFETGGGGWGNNELEFYTANRSQNVRVENGHLVIDVRVESYGGRDFTSGRIHSKQAWAYGKFEARARLPSGHHLWPAIWMFPRDSKYGPWAASGEIDIMEYRGDVHDKIEGTIHYGGQWPNNIYTGSGPHHFNVDFSKDFHNFAVEWDTKEIRWYMDGNKYFSVNIDRNMWSGKGNNPYNKNGQPFDQPFRWILNVAVGGNFFGPGPYVTPDQARHWQKHTMEIDYVRVYQWR
% T cell responding donors to protein [4]: 6 of 24

B3: 44 (protein, listed as Dermatophagoides pteronyssinus)
chain: VVIKVENLPEQCDYTQCPKWSKDDINVHLVAHTHDDVGWLKTVEQYYYGLKNDIQRAGVQYILDTMIEELIRNKDRRFIYVEIAFFWKWWQEQNEEQRMIVKELVRTGQLEFINGGWSMPDEAATHYNSLIDQSTWGLRQLNDTFGRCGHPKVTWQIDPFGHSKEMANLYAQMGYDALFFARQDYQDRENRMSNRTLEHVWQGSDDLGEIGDIFTGMMFSGYGPIEFNWDITNGPEDAVVDNPESEEYNVPDKIRRFVEKAKYFGQFYATNHFMFPMGTDFQYTDAHTWFKNLDKLINAVNKAGKGVRAFYSTPSCYAHALYEQNRTWTTKTDDFFPYASDEHAYWTGYFTSRPAIKRMERIGNNLLQACKQLDVLADNNGRFEMNLTKMREAMGVMQHHDAVTGTEKQHVAFNYAKMLDSAMLQCRHIINESYKKLLPKSSTSEHEFCPYLNISSCPTTEMGESRIIYLYNPLGHRLINHTVRLPIKNGYYYRIQDQNNQSVPSVLVPIPEFVQKIPGRKSVATKELVFRVPVIEPLGITTMYMYVDKNEQPNSAIEIKGENPDDNDDKSKWLVLTKNLIVEFYSNGTISRISIDKLHQSISISNEFRLYHGAGGTGRHSGAYIFRPNEQKTFPVTNKIKSTFFIDRKYHIVQEVHQQFDSSFVGQIIRMDKYNDNVEFDFVVGPIPVNDQIGKEIIASYKTDLENDETFYTDANGRQMLRRRWNYRPSWKYNVQEPISGNYYPVNSRIAIRDEKQSLQMTIMTDRSQGGSLSPEQINGSIDIMIHRRLLHDDYFGVGEALNEPGVDGHGLVIRGKHLLLLNSIKQSASEHRPLAQQMFMEPIISFTSIESNKQAEKQSNQYIGLNNDLPSNVHLLTLEQWHSKRYLLRLEHFYQSNEDTELSKPVKLSLRHLFKSFEIIAVEELTLGANQPISSLKNRLHYRYNRPLEQRQQQQSSLLLDDPKIEGENFDIHLSPMQIRTFLIDIKRN
% T cell responding donors to protein [4]: 7 of 24

B4: 18 (protein, listed as Dermatophagoides pteronyssinus)
chain: QSLFVDYNDYSCGSSQNETNELIQEFKIFKKNINGNENFKKINDFIEKARLFRDNAAKQMLEIDQQLLTLNVIQISQRIKLENNKIQCEKLTKFSELLSMQLLAYEVGMFEFAEEIDPNIDFDRKMKNFLDETSRLFNLAEFEKLEKKFRNATSIEKLKNYIDGELVALNDYINEFLKDIIMSEFTVQSRYYLNFSIEDQVQIDSTLMTFSALKILLNDLKDYLEHLDN
% T cell responding donors to protein [4]: 0 of 24

B5: 24 (protein, listed as Dermatophagoides pteronyssinus)
chain: DPVQQRPTLRGVTVRVGPFVKENNGKFEGFIPDLVQAISEKVGFDYTLYLSPDGRYGNVISDGNVTGMIGEVYNKKADFAAADLTMTEARENYITFTEPFMINQLAALIRREDAEGLNTLEDLAKAQETFPKRKRIVLGTLRNGATNYFLSKSDDPLAKKIYEQIKADDQSVVKSISEGVERVDKQGGYAFIMESASAEHEIANNCKLTMLLDWRNLFPRKYAFALPKDSPYLEHFNNAIKQLNSEGKIAELRRKYWANNCAENKTKDDKN
% T cell responding donors to protein [4]: 3 of 24

B6: 12 (protein, listed as Dermatophagoides pteronyssinus)
chain: MSISAHGGGLVNGIAGMENKFTVFTSGKPVSGLTVAFEGPTKPEINFNSTKDGSVDVGYIPKAGGQYKIHIKYEGKEIVGSPFKCNISGDESTHRKLTEKVKVGGPNISTGKVNQDNQLTIDCKEAGITGGISFAMEGPAKVEVSFRNNNDGTITVIYKPPTPGDYKLHLKFNDIHLPGSPYPIVVSA
% T cell responding donors to protein [4]: 5 of 24

B7: A007: house dust mite protein; SEQ ID NO: 30 (Der f), 31 (Der p), 306 (Blo t) (protein)
chain: MAKFNYLPVDVQEELRNTANAIVSVGKGILAADESTGTIGKRFADINVENVEQNRQAYRQLLFYSEGIEQYISGVILFDETVYQKDDKGVPFPELLKKKGIIPGIKVDTGVVTLQGTNGESTTQGLDNLTKRCQEYYNQGCRFAKWRCVLKIGQDEPSSLAIVENANVLARYASCCQQARIVPIVEPEILPDGDHNLERCQKVTETVLAAVYKALNDHHVYLEGTLLKPNMVTPGQSCPQKASPQEVAQATVTALQRTVPAAVPGIVFLSGGQSEEEASVNLNAINQYQGKKPWALSFSYGRALQASALRAWQGKPENIGAGQKELLQRAKANVLAHKGQYVAGSIPSLASAKSNFVAQHKY
# of individuals of 14 with positive BAT test ([1]; 1 ng/ml): 0
# of individuals of 14 with positive BAT test ([1]; 10 ng/ml): 0
# of individuals of 14 with positive BAT test ([1]; 100 ng/ml): 0
# of individuals of 14 with positive BAT test ([1]; 1000 ng/ml): 0
% responders of in-vitro T cell proliferation test, Allergic [2]: 21%
% responders of in-vitro T cell proliferation test, Non-allergics [2]: 38%
% HDM allergic individuals with cytokine production in ex-vivo T cell assay IL-5 [3]: 6%
% HDM allergic individuals with cytokine production in ex-vivo T cell assay IL-9 [3]: 6%
% HDM allergic individuals with cytokine production in ex-vivo T cell assay IL-10 [3]: 44%
% HDM allergic individuals with cytokine production in ex-vivo T cell assay IL-13 [3]: 19%
% HDM allergic individuals with cytokine production in ex-vivo T cell assay IL-17 [3]: 38%
% HDM allergic individuals with cytokine production in ex-vivo T cell assay IL-31 [3]: 0%
% HDM allergic individuals with cytokine production in ex-vivo T cell assay INF-g [3]: 31%
% non-allergic individuals with cytokine production in ex-vivo T cell assay IL-5 [3]: 0%
% non-allergic individuals with cytokine production in ex-vivo T cell assay IL-9 [3]: 0%
% non-allergic individuals with cytokine production in ex-vivo T cell assay IL-10 [3]: 83%
% non-allergic individuals with cytokine production in ex-vivo T cell assay IL-13 [3]: 0%
% non-allergic individuals with cytokine production in ex-vivo T cell assay IL-17 [3]: 67%
% non-allergic individuals with cytokine production in ex-vivo T cell assay IL-31 [3]: 0%
% non-allergic individuals with cytokine production in ex-vivo T cell assay INF-g [3]: 33%

B8: 16 (protein, listed as Dermatophagoides pteronyssinus)
chain: MSKPIFYYHPFSGPCRTVSTVAKILNVDMEMKKLDLLTKEHLNPEFLKVNPFHKVPTFVDSDGFVVDESRVIAMYLVESRKPDSFLYPKNDLKKRIQIDRWLHYDINLSTTISAPMFCVFRGHQVQDYQVEQGKETLKTLDGVMQSFEGKFLTGADQFTLADIAMYFSLNTMEVYPKYFKFDDYPNLKSWYHRVAEALKQYDTEGTIPKAIETMKQFIQQRAAEAEKH
% T cell responding donors to protein [4]: 3 of 24

B9: 4 (protein, listed as Dermatophagoides pteronyssinus)
chain: QVYCNGAAIVSAARSQIGVPYSWGGGGIHGKSRGIGEGANTVGFDCSGLAQYSVYQGTHKVLARVASGQYSDPKCHHVAYGSHQPGDLVFFGNPIHHVGIVSAHGRMINAPHTGTNVREENIWSDHIANVARCW
% T cell responding donors to protein [4]: 8 of 24
